“And” between values parts separate entries of the source, which are not always exact repeats. Equal entries are not always repeated.
Key:
[1] = molecular target: α5β1 integrin purified from rat liver (rat) (UniProt P49134); experiment: cryo-EM structure; rat α5β1 integrin in peptidiscs on cobalt beads, sialidase-treated, 4 μM Gal3 for 2 h at 21 °C, eluted with 10 mM EDTA and vitrified at once; 6.9 Å
[2] = molecular target: galectin-3 (Gal3), human recombinant, made as Gal3-TEV-6xHis and freed of the tag by TEV protease (human) (UniProt P17931); experiment: negative stain EM; Gal3 or Gal3∆Nter (4 μM, 2 h at 21 °C) on inactive rat α5β1 integrin in nanodiscs held on cobalt beads, washed, eluted with 50 μM I3; the eluted particles counted as monomers or ring-shaped oligomers
[3] = molecular target: galectin-3 (Gal3), human recombinant, made as Gal3-TEV-6xHis and freed of the tag by TEV protease (human) (UniProt P17931); experiment: cryo-EM structure; rat α5β1 integrin in GSL-containing nanodiscs on cobalt beads, sialidase-treated, 4 μM Gal3 for 2 h at 21 °C, eluted with 10 mM EDTA and vitrified at once; three subsets at 7.4, 8.5 and 7.6 Å; Gal3 CRDs (PDB 1KJL) fitted as rigid bodies
[4] = molecular target: α5β1 integrin purified from rat liver (rat) (UniProt P49134); experiment: as above
[5] = molecular target: α5β1 integrin purified from rat liver (rat) (UniProt P49134); experiment: single-molecule photobleaching (TIRF); sialidase-treated rat α5β1 integrin in biotinylated peptidiscs complexed with 4 μM Gal3-Cy3 on cobalt beads, eluted with EDTA, immobilised on neutravidin-coated glass; 21 °C
[6] = molecular target: galectin-3 (Gal3), human recombinant, made as Gal3-TEV-6xHis and freed of the tag by TEV protease (human) (UniProt P17931); experiment: negative stain EM; lactose-washed RPE-1 cells with exogenous Gal3 (50 μg/mL) for 30 min at 4 °C; surface-bound Gal3 eluted with I3; 2D classification of the eluted particles in cryoSPARC

With “galectin-3 (Gal3), human recombinant, made as Gal3-TEV-6xHis and freed of the tag by TEV protease (from UniProt P17931 1-250) (natural protein)” the stoichiometry N [1] was 2, the percent of eluted Gal3 particles that are ring-shaped oligomers [2] was 40% and the stoichiometry N [3] was 2 and 3 and 4. For the same substance, the stoichiometry N [4] was 2 and 3 and 4, the stoichiometry N [5] was < 4 and the percent of oligomer particles classed as dimers [6] was 37%. For the same substance, the percent of oligomer particles classed as tetramers [6] was 22%, the percent of oligomer particles classed as trimers [6] was 41% and the stoichiometry N [6] was 2 and 3 and 4.
